Measured values as given in publication PMC10163345 (Journal of Cell Science, 2023).
Where no end group is shown, it is not given here.

Molecular target: T1, constitutively active truncated His-tagged WT calcineurin (6×His–CNAαWT:CNB) (human | , UniProt Q08209 1-392; P63098 1-170)
T1 construct: human CNAα (PPP3CA), truncated at residue 392, WT; calcineurin B subunit (PPP3R1, amino acids 1–170), expressed in tandem with CNAα; p11 vector (PSI:Biology-Materials Repository); held on His-tag Dynabeads in the pull-down; also called CNWT; source: E. coli BL21 (DE3), purified (Ni-NTA agarose, dialysed)
T1 sequence (Q08209 1-392, chain 1 of 2): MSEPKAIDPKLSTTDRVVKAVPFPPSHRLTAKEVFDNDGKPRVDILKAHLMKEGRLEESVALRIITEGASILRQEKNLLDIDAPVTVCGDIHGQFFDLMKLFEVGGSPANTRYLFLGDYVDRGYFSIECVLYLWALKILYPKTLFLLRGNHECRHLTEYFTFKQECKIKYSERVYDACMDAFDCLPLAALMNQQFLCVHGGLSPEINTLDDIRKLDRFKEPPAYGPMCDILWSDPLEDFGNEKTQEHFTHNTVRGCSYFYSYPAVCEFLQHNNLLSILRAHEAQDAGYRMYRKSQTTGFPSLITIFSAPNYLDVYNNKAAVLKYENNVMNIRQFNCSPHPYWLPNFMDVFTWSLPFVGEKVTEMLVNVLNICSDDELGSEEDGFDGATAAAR
T1 sequence (P63098 whole entry, chain 2 of 2, the tested form may be a part): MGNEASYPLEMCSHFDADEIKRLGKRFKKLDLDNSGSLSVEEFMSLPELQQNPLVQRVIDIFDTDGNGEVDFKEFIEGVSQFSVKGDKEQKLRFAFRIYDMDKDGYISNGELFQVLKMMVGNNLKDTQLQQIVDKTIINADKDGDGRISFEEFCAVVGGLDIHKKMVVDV
Assay: pull-down; 1–2 μg 6×His-tagged CN bound to His-Tag Dynabeads; 7–10 μg purified GST-tagged peptide added, 2 h at 4°C; 50 mM Tris-HCl pH 7.5, 150 mM NaCl, 0.1% Tween 20, 1 mM β-mercaptoethanol, 15 mM imidazole, 0.5 mg/ml BSA; immunoblot
Conditions: both partners purified

B1: GST-tagged POC5 PxIxIT peptide (POC5 PDVRIS) (peptide)
chain: KGELVPDVRISTIHDI
modifications: also: GST-tagged
notes: 16mer of human POC5 with the PxIxIT motif PDVRIS (residues 35–40 of Q8NA72-3) in the centre; pGEX-4T-3 vector; also called WT POC5 peptide; source: E. coli BL21 (DE3), purified (Glutathione Sepharose 4B, dialysed)
- binding result: binds
